Source: patent US20250171512A1

What follows are substances tested against human FGFR1c together with human beta-Klotho (KLB), stably expressed on CHO Flp-In cells (human) (UniProt P11362) (assay: cell-based or functional assay).
Chain of human FGFR1c together with human beta-Klotho (KLB), stably expressed on CHO Flp-In cells (human) (P11362 22-822, chain 1 of 2): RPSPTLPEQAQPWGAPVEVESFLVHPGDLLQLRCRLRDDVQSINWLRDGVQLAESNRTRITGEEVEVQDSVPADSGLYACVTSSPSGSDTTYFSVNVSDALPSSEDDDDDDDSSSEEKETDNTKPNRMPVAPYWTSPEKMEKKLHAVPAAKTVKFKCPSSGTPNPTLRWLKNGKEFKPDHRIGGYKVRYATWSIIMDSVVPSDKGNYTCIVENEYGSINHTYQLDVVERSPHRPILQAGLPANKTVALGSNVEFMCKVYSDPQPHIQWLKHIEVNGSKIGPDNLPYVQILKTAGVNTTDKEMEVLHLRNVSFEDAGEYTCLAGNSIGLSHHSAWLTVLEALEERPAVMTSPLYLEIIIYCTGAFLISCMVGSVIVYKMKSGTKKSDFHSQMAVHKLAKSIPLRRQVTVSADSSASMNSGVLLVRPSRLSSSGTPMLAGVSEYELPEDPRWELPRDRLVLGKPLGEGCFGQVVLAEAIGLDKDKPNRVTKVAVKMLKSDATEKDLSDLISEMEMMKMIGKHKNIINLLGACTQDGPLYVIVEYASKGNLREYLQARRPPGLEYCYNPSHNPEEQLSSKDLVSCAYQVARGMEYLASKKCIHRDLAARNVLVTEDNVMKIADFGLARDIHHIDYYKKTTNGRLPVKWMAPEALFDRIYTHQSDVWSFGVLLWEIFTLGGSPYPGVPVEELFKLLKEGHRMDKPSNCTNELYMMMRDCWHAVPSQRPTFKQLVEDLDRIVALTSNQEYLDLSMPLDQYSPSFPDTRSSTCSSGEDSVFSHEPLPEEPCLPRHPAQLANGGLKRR
Chain of human FGFR1c together with human beta-Klotho (KLB), stably expressed on CHO Flp-In cells (human) (Q86Z14 whole entry, chain 2 of 2, further chain): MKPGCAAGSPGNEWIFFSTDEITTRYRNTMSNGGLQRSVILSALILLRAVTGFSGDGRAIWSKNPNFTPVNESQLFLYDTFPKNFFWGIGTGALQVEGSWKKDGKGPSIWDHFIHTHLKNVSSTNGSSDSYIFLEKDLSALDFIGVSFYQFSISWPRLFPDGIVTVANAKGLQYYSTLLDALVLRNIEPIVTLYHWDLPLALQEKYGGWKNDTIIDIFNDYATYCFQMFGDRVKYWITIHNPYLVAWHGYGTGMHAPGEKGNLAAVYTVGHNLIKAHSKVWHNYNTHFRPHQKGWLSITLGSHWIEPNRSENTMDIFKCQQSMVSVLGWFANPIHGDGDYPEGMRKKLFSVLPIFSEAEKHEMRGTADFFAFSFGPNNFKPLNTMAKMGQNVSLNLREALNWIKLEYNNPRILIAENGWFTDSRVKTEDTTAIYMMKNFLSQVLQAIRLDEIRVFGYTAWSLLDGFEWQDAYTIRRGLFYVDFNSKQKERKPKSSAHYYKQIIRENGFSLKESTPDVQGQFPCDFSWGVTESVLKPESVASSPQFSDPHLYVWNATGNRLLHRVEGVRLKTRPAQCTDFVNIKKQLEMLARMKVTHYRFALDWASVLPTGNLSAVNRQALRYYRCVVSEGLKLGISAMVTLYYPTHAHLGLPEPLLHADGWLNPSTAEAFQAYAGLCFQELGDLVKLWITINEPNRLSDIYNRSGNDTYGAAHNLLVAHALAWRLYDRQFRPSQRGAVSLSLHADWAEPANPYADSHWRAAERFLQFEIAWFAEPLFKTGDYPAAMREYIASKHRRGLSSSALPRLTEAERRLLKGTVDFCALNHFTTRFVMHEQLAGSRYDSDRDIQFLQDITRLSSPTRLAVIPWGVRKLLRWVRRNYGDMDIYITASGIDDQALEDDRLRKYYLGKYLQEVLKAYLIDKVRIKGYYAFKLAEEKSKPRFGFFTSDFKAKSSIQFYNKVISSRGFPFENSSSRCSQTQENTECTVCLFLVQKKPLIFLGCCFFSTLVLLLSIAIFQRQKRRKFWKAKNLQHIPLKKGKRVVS

Chain of FGF21 S204 deleted (SEQ ID NO: 65) (Q9NSA1 other isoform, or with tags, fused parts or gaps): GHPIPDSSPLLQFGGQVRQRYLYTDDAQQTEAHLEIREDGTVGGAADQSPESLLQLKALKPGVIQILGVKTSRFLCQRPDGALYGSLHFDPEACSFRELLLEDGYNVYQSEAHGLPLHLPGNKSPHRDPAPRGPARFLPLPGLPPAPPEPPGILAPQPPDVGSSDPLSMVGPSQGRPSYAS
Chain of FGF21 S200 deleted (SEQ ID NO: 61) (Q9NSA1 other isoform, or with tags, fused parts or gaps): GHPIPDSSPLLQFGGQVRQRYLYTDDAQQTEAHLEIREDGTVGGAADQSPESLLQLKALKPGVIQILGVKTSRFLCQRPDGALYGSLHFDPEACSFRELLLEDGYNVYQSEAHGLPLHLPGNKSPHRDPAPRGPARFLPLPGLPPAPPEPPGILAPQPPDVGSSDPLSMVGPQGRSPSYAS
Chain of FGF21 Y207 deleted (SEQ ID NO: 68) (Q9NSA1 other isoform, or with tags, fused parts or gaps): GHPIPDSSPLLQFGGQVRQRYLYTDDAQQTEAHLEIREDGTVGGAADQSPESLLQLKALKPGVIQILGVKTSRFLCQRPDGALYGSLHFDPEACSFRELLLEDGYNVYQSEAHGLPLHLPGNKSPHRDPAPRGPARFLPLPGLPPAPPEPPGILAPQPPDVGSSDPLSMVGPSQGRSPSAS
Chain of FGF21 P186 deleted (SEQ ID NO: 58) (Q9NSA1 other isoform, or with tags, fused parts or gaps): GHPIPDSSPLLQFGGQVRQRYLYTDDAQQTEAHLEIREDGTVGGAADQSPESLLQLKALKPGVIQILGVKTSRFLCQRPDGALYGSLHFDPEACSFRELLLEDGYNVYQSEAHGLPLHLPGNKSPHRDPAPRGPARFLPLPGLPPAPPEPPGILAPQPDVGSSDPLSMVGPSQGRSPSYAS
Chain of FGF21 S206 deleted (SEQ ID NO: 67) (Q9NSA1 other isoform, or with tags, fused parts or gaps): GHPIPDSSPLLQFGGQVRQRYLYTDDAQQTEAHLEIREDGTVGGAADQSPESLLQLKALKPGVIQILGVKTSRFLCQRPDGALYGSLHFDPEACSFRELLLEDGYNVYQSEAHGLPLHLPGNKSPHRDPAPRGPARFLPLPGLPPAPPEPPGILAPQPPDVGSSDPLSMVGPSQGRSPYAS
Chain of FGF21 R203 deleted (SEQ ID NO: 64) (Q9NSA1 other isoform, or with tags, fused parts or gaps): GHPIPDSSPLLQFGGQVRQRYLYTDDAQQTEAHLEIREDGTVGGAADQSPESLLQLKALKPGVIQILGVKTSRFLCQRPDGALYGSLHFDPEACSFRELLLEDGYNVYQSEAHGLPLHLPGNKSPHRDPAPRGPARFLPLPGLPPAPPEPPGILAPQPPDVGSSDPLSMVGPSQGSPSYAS
Chain of FGF21 D187 deleted (SEQ ID NO: 57) (Q9NSA1 other isoform, or with tags, fused parts or gaps): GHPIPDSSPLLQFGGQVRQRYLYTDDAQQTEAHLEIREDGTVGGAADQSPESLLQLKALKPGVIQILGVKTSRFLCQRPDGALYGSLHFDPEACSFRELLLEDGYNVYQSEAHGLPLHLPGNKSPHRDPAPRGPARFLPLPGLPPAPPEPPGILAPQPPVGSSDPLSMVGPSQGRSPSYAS
Chain of FGF21 P185-P186 deleted (SEQ ID NO: 59) (Q9NSA1 other isoform, or with tags, fused parts or gaps): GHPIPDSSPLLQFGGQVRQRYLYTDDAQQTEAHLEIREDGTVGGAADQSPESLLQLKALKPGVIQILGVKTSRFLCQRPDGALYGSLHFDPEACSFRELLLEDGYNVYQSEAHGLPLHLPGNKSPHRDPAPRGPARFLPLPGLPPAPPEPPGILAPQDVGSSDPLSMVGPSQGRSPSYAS

Substance	pERK ICW EC50 [nmol/L]
FGF21 E62C, A72C (SEQ ID NO: 106) (from UniProt Q9NSA1 29-209) (ligand)	2.03
FGF21 Q55G, Q56C, L146C, P147-R159 deleted and replaced by GGSGGS (SEQ ID NO: 98) (from UniProt Q9NSA1 29-209) (ligand)	155
FGF21 I63C, T98C (SEQ ID NO: 111) (from UniProt Q9NSA1 29-209) (ligand)	87.6
FGF21 G198 deleted, P199L, S200N (SEQ ID NO: 33) (from UniProt Q9NSA1 29-209) (ligand)	9.44
FGF21 E78C, T98C (SEQ ID NO: 118) (from UniProt Q9NSA1 29-209) (ligand)	9.22
FGF21 E62C, E78C (SEQ ID NO: 101) (from UniProt Q9NSA1 29-209) (ligand)	2.44
FGF21 D187 deleted (SEQ ID NO: 57) (from UniProt Q9NSA1 29-209) (ligand)	86.1
FGF21 V197E (SEQ ID NO: 14) (from UniProt Q9NSA1 29-209) (ligand)	31.4
FGF21 S204 deleted (SEQ ID NO: 65) (from UniProt Q9NSA1 29-209) (ligand)	25.7
FGF21 A120C, A139C (SEQ ID NO: 114) (from UniProt Q9NSA1 29-209) (ligand)	22
FGF21 H140C, L142C (SEQ ID NO: 82) (from UniProt Q9NSA1 29-209) (ligand)	2.27
FGF21 P143C, A162C (SEQ ID NO: 116) (from UniProt Q9NSA1 29-209) (ligand)	17.6
FGF21 Y207 deleted (SEQ ID NO: 68) (from UniProt Q9NSA1 29-206) (ligand)	7.14
FGF21 P77C, K97C (SEQ ID NO: 117) (from UniProt Q9NSA1 29-209) (ligand)	8.76
FGF21 S206 deleted (SEQ ID NO: 67) (from UniProt Q9NSA1 29-205) (ligand)	31.9
FGF21 G108C, L142C, P199 deleted (SEQ ID NO: 40) (from UniProt Q9NSA1 29-209) (ligand)	0.9
FGF21 G198R (SEQ ID NO: 18) (from UniProt Q9NSA1 29-209) (ligand)	1.15
FGF21 G198Y (SEQ ID NO: 20) (from UniProt Q9NSA1 29-209) (ligand)	0.68
FGF21 A54C, P161C (SEQ ID NO: 109) (from UniProt Q9NSA1 29-209) (ligand)	6.38
FGF21 R203 deleted (SEQ ID NO: 64) (from UniProt Q9NSA1 29-209) (ligand)	6.69
FGF21 P199S, S200P (SEQ ID NO: 9) (from UniProt Q9NSA1 29-209) (ligand)	1.72
FGF21 P186 deleted (SEQ ID NO: 58) (from UniProt Q9NSA1 29-209) (ligand)	0.87
FGF21 Q55G, Q56C, L146C, P147-R159 deleted and replaced by GSGS (SEQ ID NO: 97) (from UniProt Q9NSA1 29-209) (ligand)	114
FGF21 R124C, Q136C (SEQ ID NO: 115) (from UniProt Q9NSA1 29-209) (ligand)	22.6
FGF21 G67C, R100C (SEQ ID NO: 112) (from UniProt Q9NSA1 29-209) (ligand)	23.3
FGF21 G198P, P199G (SEQ ID NO: 24) (from UniProt Q9NSA1 29-209) (ligand)	10.8

Results, then the substance that gave them:

pERK ICW EC50 [nmol/L]	Substance
2.15	FGF21 A59C, G71C (SEQ ID NO: 77) (from UniProt Q9NSA1 29-209) (ligand)
0.55	FGF21 E62C, S79C (SEQ ID NO: 102) (from UniProt Q9NSA1 29-209) (ligand)
10.8	FGF21 S195C, S200C (SEQ ID NO: 8) (from UniProt Q9NSA1 29-209) (ligand)
21.1	FGF21 P185-P186 deleted (SEQ ID NO: 59) (from UniProt Q9NSA1 29-209) (ligand)
85.8	FGF21 V197D, G198V, P199D, S200H (SEQ ID NO: 26) (from UniProt Q9NSA1 29-209) (ligand)
1.44	FGF21 S76C, S79C (SEQ ID NO: 85) (from UniProt Q9NSA1 29-209) (ligand)
0.55	FGF21 G108C, L142C, G198Y (SEQ ID NO: 41) (from UniProt Q9NSA1 29-209) (ligand)
1.17	FGF21 S200 deleted (SEQ ID NO: 61) (from UniProt Q9NSA1 29-209) (ligand)
4.53	FGF21 G198E (SEQ ID NO: 16) (from UniProt Q9NSA1 29-209) (ligand)
14.5	FGF21 R47C, P174C (SEQ ID NO: 90) (from UniProt Q9NSA1 29-209) (ligand)
0.15	FGF21 S76C, S79C, G198Y (SEQ ID NO: 39) (from UniProt Q9NSA1 29-209) (ligand)
1.48	FGF21 G108C, L142C (SEQ ID NO: 86) (from UniProt Q9NSA1 29-209) (ligand)
6.51	FGF21 H145C, P161C (SEQ ID NO: 120) (from UniProt Q9NSA1 29-209) (ligand)
3.87	FGF21 S137C, H140C (SEQ ID NO: 84) (from UniProt Q9NSA1 29-209) (ligand)
